Experimental findings from patent publication US20190233808 are described below.

The data set concerns the target FITC-labeled bovine type-1 collagen (Chondrex, Cat# 4001) (UniProt P02453).

Chain of FITC-labeled bovine type-1 collagen (Chondrex, Cat# 4001) (P02453 162-1217, chain 1 of 2): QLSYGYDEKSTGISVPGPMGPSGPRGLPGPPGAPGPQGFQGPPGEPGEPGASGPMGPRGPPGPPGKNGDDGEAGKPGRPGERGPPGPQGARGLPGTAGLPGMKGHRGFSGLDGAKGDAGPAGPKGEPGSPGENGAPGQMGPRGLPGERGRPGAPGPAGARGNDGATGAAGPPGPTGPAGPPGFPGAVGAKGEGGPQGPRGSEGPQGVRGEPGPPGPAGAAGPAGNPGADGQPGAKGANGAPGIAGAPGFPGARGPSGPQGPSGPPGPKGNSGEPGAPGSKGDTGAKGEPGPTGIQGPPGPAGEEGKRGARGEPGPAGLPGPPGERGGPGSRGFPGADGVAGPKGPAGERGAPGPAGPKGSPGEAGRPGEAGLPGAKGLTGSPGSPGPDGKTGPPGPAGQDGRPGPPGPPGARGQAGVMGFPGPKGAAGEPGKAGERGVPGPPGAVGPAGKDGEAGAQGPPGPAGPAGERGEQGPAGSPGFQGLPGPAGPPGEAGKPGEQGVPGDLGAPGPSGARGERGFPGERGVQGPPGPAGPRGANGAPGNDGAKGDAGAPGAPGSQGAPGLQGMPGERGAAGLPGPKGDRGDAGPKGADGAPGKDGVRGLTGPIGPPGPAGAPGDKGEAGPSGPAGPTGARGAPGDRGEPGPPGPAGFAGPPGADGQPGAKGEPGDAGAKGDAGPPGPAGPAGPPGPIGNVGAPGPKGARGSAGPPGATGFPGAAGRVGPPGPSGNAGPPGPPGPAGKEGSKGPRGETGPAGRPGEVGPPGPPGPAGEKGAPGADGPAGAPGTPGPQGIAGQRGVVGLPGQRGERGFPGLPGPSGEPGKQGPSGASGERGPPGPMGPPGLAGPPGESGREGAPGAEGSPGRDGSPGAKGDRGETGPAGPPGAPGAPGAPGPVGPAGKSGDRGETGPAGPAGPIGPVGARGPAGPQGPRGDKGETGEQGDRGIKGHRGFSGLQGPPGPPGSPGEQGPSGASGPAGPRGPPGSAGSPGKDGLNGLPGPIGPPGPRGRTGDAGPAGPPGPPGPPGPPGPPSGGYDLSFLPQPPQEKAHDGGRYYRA
Chain of FITC-labeled bovine type-1 collagen (Chondrex, Cat# 4001) (P02453 other isoform, or with tags, fused parts or gaps, chain 2 of 2): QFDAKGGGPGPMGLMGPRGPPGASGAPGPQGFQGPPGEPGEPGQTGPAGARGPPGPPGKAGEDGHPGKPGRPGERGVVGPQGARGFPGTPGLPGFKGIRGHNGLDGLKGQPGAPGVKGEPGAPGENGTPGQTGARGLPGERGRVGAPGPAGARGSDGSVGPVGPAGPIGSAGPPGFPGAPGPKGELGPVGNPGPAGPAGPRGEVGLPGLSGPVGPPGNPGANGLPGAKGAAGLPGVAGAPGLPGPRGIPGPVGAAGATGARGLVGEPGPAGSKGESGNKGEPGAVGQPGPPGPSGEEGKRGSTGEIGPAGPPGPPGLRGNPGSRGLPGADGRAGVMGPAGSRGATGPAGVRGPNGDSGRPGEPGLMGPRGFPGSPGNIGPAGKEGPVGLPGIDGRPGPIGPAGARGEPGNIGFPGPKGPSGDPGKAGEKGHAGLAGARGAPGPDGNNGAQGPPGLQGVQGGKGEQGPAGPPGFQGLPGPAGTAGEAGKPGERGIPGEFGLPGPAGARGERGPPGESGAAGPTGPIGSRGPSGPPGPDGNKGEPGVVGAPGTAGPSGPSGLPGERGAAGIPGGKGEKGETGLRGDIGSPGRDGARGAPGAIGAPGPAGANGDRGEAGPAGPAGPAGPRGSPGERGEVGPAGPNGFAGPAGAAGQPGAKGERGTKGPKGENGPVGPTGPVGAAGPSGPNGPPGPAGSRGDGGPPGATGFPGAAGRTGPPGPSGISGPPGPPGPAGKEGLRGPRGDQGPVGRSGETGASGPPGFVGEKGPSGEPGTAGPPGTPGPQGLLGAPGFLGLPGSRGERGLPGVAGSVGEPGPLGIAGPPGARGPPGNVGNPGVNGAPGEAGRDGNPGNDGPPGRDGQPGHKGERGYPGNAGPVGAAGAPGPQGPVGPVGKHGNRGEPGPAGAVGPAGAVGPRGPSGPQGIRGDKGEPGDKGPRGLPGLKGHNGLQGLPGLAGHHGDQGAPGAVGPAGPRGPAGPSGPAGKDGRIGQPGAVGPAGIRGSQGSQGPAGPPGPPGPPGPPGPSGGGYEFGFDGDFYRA

With trypsin (TPCK-treated), the “collagen degradation on SDS PAGE” value is “did not show degradation of type-1 collagen”.
